The text below walks through data of article PMC11928058.

For experiment [1], the target named is Rap1 (mouse (endogenous in immortalized murine lung endothelial cells)) (UniProt P62835). Kind of experiment: proximity ligation; Duolink PLA read by flow cytometry; immortalized murine lung endothelial cells in suspension, in the dark or with blue light for the indicated times, rabbit anti-SHANK3 and mouse anti-Rap1; signal as fold over a sample without primary antibodies; cells with SHANK3 shRNA as control.
UniProt P62835, sequence (P62835 whole entry): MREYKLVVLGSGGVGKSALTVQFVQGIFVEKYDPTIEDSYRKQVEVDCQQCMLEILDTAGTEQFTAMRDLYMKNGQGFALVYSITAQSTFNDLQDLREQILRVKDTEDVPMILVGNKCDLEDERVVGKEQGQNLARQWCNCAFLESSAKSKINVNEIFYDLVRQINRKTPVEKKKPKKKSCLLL

The target is the same in experiment [2]. In words: proximity ligation; Duolink PLA read by flow cytometry; immortalized mouse endothelial cells expressing CIBN–GFP–CAAX and CRY2–mCherry–talin, in the dark or with blue light for 30 min at room temperature, fixed, permeabilized, stained with rabbit anti-mCherry and mouse anti-Rap1; with or without overexpressed mAzurite–FLAG–WT SPN.

In turn, “SH3 and multiple ankyrin repeat domains 3 (SHANK3) (from UniProt Q4ACU6 1-1730) (natural protein)” showed a PLA signal, fold over the same cells expressing SHANK3 shRNA in experiment [1] of 3 fold.

In experiment [1], “CRY2–mCherry–talin (full-length mouse talin-1) (from UniProt P26039 1-2541) (natural protein)” came in with a percent reduction of the PLA signal of m4 with m2 after 30 min of blue light of 40%. Also, the increase of the PLA signal with blue light over dark in experiment [2] worked out at 10%.

For the substance “mAzurite–FLAG–WT SPN (wild-type SPN domain of SHANK3) (domain or fragment)”, the percent reduction of the PLA signal of m1 with m2 in experiment [2] turned out to be 70%.
